We go through six molecules from patent publication US20200024354A1 (OSSIANIX, published 2020).

The EC50 is the midpoint of the concentration-response curve. The term IC50 denotes the concentration that gives 50% inhibition.

Assay [1] addresses recombinant human BAFF-Fc (Sino Biological) (human) (UniProt Q9Y275). Nature of the assay: cell-based or functional assay.
The target in assay [2] is T1, recombinant mouse BAFF (R&D Systems) (mouse, UniProt Q9WU72 127-309). The experiment in a line: cell-based or functional assay.
T1 sequence (Q9WU72 127-309 limits assumed): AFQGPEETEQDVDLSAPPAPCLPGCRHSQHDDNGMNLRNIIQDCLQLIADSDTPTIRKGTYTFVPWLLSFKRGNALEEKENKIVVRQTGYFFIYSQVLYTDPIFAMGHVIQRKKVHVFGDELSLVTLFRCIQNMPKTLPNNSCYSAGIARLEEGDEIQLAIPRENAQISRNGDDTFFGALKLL
For assay [3], the target named is T2, recombinant human BAFF-Fc (Sino Biological) (human, UniProt Q9Y275 134-285).
T2 construct: Bought reagent; also called hBAFF; not shown: Fc moiety detected by anti-human Fc
T2 sequence (Q9Y275 134-285): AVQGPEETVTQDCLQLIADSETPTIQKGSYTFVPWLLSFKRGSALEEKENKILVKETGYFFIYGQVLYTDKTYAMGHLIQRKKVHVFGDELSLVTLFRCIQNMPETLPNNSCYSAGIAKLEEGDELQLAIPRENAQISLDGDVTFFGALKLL
The experiment in a line: blocking ELISA: periplasmic extract + 1.14 nM BAFF-Fc on coated BAFF-R extracellular domain, anti-human Fc-HRP. How it is done:
The ability of selected BAFF-specific VNARs to prevent the binding of BAFF to its receptor (BAFF-R) was tested in a blocking ELISA format. Briefly, selected clones were grown in 96 deep-well plates and the periplasmic fraction was extracted as described above. Nunc Maxisorp 96-well plates were coated at 1 μg/mL with the BAFF-R extracellular domain (Peprotech) and blocked in PBS-0.1% Tween+2.5% milk. The periplasmic fraction was also pre-blocked in PBS-0.1% Tween-20+2.5% milk in the presence of 1.14 nM BAFF-Fc (Sino Biological) before being exposed to the BAFF-R coated surface. After washing in PBS-0.1% Tween-20, BAFF bound to its receptor was detected via its Fc moiety using a peroxidase-conjugated anti-human Fc (Sigma). Absorbance at 450 nm was recorded using an Envision multiwell reader (Perkin Elmer) (FIG. 8) and clones reducing the amount of BAFF bound to its receptor by more than 50% were selected as specific blockers.
On the technique in general: ELISA stands for enzyme-linked immunosorbent assay.

Assay [4] has as its target T3, human BAFF (recombinant) (human, UniProt Q9Y275 134-285).
T3 construct: also called hBAFF; recombinant BAFF (Sino biologicals)
The experiment in a line: ELISA on coated human BAFF.

The target in assay [5] is T3, human BAFF (recombinant). The experiment in a line: ELISA on coated human BAFF (legend of FIG. 18; rounded form of 0.632 nM). As for the experimental part: Based on the results of Example 11, the A07 anti-BAFF molecule was reformatted as a mouse Fc fusion protein with effector function intact. The protein was expressed and purified as described above and EC50 binding to human BAFF was assessed by ELISA as previously described. […] Mice are then injected i.p. with 100 μg of A07-Fc, 5A7-Fc, or blank control (PBS) on day 0 and again on day 4, 8, and 12 before being be culled on day 15. B cell subset populations in the spleen are analysed by flow cytometry as described above and improvements in B cell depletion are anticipated.

In assay [6] the target is T2, recombinant human BAFF-Fc (Sino …). Nature of the assay: cell-based or functional assay.
For assay [7] the target is unchanged. The experiment in a line: cell-based or functional assay. The source holds these as a separate data set.
The target is the same in assay [8]. Nature of the assay: ELISA, purified monomeric VNAR on coated BAFF-Fc, anti-FLAG detection.
Assay [9] has the same target. The experiment in a line: blocking ELISA, binding of BAFF-Fc to coated BR3 (BAFF-R); repeats Table 2.
Assay [10] deals with T4, human serum albumin (Sigma) (human, UniProt P02768 25-609).
T4 construct: Negative control coat; also called HSA
T4 sequence (P02768 25-609 limits assumed): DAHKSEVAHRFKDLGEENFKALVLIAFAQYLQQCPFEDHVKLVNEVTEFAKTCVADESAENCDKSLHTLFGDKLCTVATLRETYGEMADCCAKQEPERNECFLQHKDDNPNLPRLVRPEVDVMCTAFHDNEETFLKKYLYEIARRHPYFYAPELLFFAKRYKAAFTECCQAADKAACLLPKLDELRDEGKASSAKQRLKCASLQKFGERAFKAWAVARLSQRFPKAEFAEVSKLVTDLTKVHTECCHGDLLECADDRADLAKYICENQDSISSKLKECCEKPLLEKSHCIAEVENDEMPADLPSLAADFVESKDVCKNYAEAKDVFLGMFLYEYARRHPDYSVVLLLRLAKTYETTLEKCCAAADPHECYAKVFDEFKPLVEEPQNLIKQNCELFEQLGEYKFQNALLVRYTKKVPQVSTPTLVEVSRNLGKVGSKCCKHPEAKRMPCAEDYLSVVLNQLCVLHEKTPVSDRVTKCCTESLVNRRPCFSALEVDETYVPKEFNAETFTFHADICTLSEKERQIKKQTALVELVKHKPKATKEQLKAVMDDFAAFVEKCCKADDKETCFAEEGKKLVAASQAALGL
Nature of the assay: ELISA, periplasmic extract on coated HSA (1 µg/mL), anti-FLAG-HRP.

Assay [11] has as its target T5, APRIL (Sigma) (UniProt O75888 105-250, limits assumed).
T5 sequence (looked up): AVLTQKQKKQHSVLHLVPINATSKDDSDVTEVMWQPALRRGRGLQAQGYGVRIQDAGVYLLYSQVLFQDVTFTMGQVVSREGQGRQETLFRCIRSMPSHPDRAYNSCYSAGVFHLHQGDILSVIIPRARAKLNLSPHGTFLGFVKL
Nature of the assay: ELISA, periplasmic extract on coated APRIL (1 µg/mL), anti-FLAG-HRP. As for the experimental part: Clones blocking the interaction between BAFF and its three receptors were tested for their ability to cross-react with BAFF's closest related protein, APRIL. Clones were grown in a 96 well format, periplasmic fraction was extracted by osmotic shock as previously described and directly used in a binding ELISA. Nunc Maxisorp 96 well plates were coated at 1 μg/mL with either BAFF-Fc (Sino Biological), HSA (Sigma), or APRIL (Sigma) and periplasmic fraction, pre-blocked in PBS-0.1% Tween+2.5% Milk, was exposed to the coated surface. After washing in PBS-0.1% Tween, bound VNARs were detected using a peroxidase-conjugated anti-FLAG antibody (Sigma). Absorbance at 450 nm was recorded using an Envision multiwell reader (Perkin Elmer).

The target of assay [12] is T2, recombinant human BAFF-Fc (Sino …). Nature of the assay: blocking ELISA, VNAR diluted with 0.5 nM BAFF-Fc; binding of BAFF-Fc to coated BCMA. How it is done:
(§1) The pre-blocked proteins were then exposed to Nunc Maxisorp 96 well plates which were coated at 1 μg/mL with the recombinant human TACI or BCMA (Peprotech), preblocked in (PBS-0.1% Tween+2.5% Milk). After washing in PBS-0.1% Tween, BAFF bound to its receptor was detected via its Fc moiety using a peroxidase-conjugated anti-human Fc (Sigma). Absorbance at 450 nm was recorded using an Envision multiwell reader (Perkin Elmer) and IC50 values were calculated by fitting the curves (non-linear regression) using GraphPad Prism®. The results are shown in FIG. 15 and the fitted IC50 values are tabulated below.

For assay [13] the target is unchanged. Nature of the assay: blocking ELISA, VNAR diluted with 0.5 nM BAFF-Fc; binding of BAFF-Fc to coated TACI. As for the experimental part:
as §1

Assay [14] has as its target T1, recombinant mouse BAFF (R&D Systems). The experiment in a line: Mouse cross-reactivity grade (binds to both human and mouse BAFF); assay not described.
For assay [15], the target named is T2, recombinant human BAFF-Fc (Sino …). The experiment in a line: blocking ELISA, VNAR diluted with 1.14 nM BAFF-Fc; binding of BAFF-Fc to coated BAFF-R extracellular domain.

T3 sequence (Q9Y275 134-285 limits assumed): as the sequence (Q9Y275 134-285) above
Chain of recombinant human BAFF-Fc (Sino Biological) (human) (Q9Y275 134-285): as above

Turning to “BAFFr (positive control, Example 10) (from UniProt Q96RJ3 1-76) (receptor)”, the IC50 (human), proliferation of mouse splenic B cells in assay [1] was 66.2 nM. Moreover, the IC50 (mouse), proliferation of mouse splenic B cells in [2] came out at 7.06 nM.

B1: ID2-101B08 (VNAR)
VNAR: AARVDQTPQTITKETGESLTINCVLRDSNCALSSTLWYRTKSGSRNEESISKGGRYVETVNSGSKSFSLKINDLTVEDSGTYRCKVPRDLLLCKRPRARLPDVYGGGTAVTVNA
notes: Nurse shark VNAR single domain, monomer in periplasmic extract
As for B1, in [3], the binding result is given as “binds”.

B2: A07 formatted as a mouse Fc fusion protein with effector function intact (Fc fusion)
chain: AQAAARVDQTPQTITKETGESLTINCVLRDSNCALSNLYWYRKKSGSTNEESISLGGRYVETVNSGSKSFSLRINDLTVEDSGTYRCKVQLPYDPLTKECILGRMDVYGDGTAVTVNAASGAHHHHHHGADYKDDDDK
notes: also called A07-mFc; not shown: mouse Fc with effector function
Regarding B2, the concentration giving a half-maximal response (EC50) was approximately 0.632 nM in assay [4] and approximately 0.6 nM in assay [5].

B3: B07 formatted as a human Fc fusion (Fc fusion, not shown: a dimerising Fc or GST)
chain: AQAAARVDQTPRSVTKETGESLTINCVLRDSICALSSTHWYRKKSGSTNEESISKGGRYVETVNSGSKSFSLRINDLTVEDSGTYRCKVHGGRSTGLCGDVLLAGDVYGGGTAVTVN
Regarding B3, in [6], the “IC50 (human), proliferation of mouse splenic B cells” value was 3.79 nM. Besides, the “IC50 (mouse), proliferation of mouse splenic B cells” value in assay [2] was found to be 604 nM.

B4: ID2-101A09 (VNAR)
VNAR: AARVDQTPQTITKETGESLTINCVLRDNNCALSTTYWYRKKSGSTNEESISKGGRYVETVNSGSKSFSLRINDLTVEDSGTYRCKVREDPLMCRYYLDRYRDVYGGGTVVTVNA
notes: Nurse shark VNAR single domain, monomer
For the molecule B4, the “CELLULAR IC50” value in assay [7] stood at 215 nM. In addition, in assay [8], the EC50 stood at 4.9 nM. Further, the IC50 in assay [9] worked out at 9.7 nM; in [12], 23.6 nM; in assay [13], 27.2 nM; in assay [15], 9.7 nM. Moreover, the binding result in assay [10] was “no binding”; in assay [11] it was “no binding”; in [14], “binds”.

B5: A07 formatted as a human Fc fusion (Fc fusion, not shown: a dimerising Fc or GST)
chain: AQAAARVDQTPQTITKETGESLTINCVLRDSNCALSNLYWYRKKSGSTNEESISLGGRYVETVNSGSKSFSLRINDLTVEDSGTYRCKVQLPYDPLTKECILGRMDVYGDGTAVTVN
With B5, the “IC50 (human), proliferation of mouse splenic B cells” value in assay [6] worked out at 2.48 nM. The “IC50 (mouse), proliferation of mouse splenic B cells” value in [2] is 1.95 nM.
